Experimental data as given in the supplement of paper PMC9170038.

System: MS2 coat protein
Assay: apparent KD of MS2 coat protein; designed switch direction (-1 OFF switch, 1 ON switch): -1; higher = weaker reporter binding
Method in brief: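 Each step of the titration lasted 0.8–1.5 h at the lowest concentration and 10–20 min at the highest. The protein, SNAP-549-labelled MS2 coat protein, went from 0.7 or 1.5 nM doubling to 3 µM over RNA switches transcribed on Illumina chips by stalled E. coli RNA polymerase. Normalised cluster fluorescence was curve-fitted, and the per-design median over clusters is given as apparent KD.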

[1] = Eterna round: R95, input ligand: FMN 200 uM
[2] = Eterna round: R95, input ligand: microRNA oligo, concentration not stated
[3] = Eterna round: R95, input ligand: none

| Sequence | apparent KD of MS2 coat protein (input ligand: FMN 200 uM) | apparent KD of MS2 coat protein (input ligand: none) | apparent KD of MS2 coat protein (input ligand: microRNA oligo, concentration not stated) | apparent KD of MS2 coat protein [1] | apparent KD of MS2 coat protein [2] | apparent KD of MS2 coat protein [3] |
| --- | --- | --- | --- | --- | --- | --- |
| GGCAUGCAAGGAUAUACUUACAGUGAUGUUCGAAUAAGUCUACUUGAGGAUCACCCAAGUAGAAGGUGCAUGCC [Exclusion 2 (Mod3.1 JL EX2 4.74 Vienna UCT mod of Mamaed)] (Eterna round: R97, puzzle: Exclusion 2) | 62.8 nM | 16 nM | – | – | – | – |
| AAACAGCAAGGAUAUACGGGCUGUGCUUUUCAUUUCAUACAACAUGAGGAUCACCCAUGUAGAAGGUGCAACAA [Ex2 #4] (Eterna round: R97, puzzle: Exclusion 2) | 125 nM | 34.3 nM | – | – | – | – |
| CUAGCGAGUGUAGGAUAUCGGACUGUUUCAGUCUGAGAAGGACAUGAGGAUCACCCAUGUGUAGCUACGUGAGUAGCACGCUAG [JL ENG1 3.88] (Eterna round: R96, puzzle: Exclusion NG 1) | 40.2 nM | 22.3 nM | 15 nM | – | – | – |
| AGCCUCGCUGUUAGGAUAUGCAUGGAUAAGCUCCGGCAGAAGGGACAUGAGGAUCACCCAUGUAACGUAGUUUA [BmEX4 B.4] (Eterna round: R97, puzzle: Brourd's mod of Exclusion 4) | 31.8 nM | 25.2 nM | – | – | – | – |
| AAAGGGUGAGGAUAUCCAUCUGGAUCAGACUAGAUCCUGAUGGAGAAGGCACAUGAGGAUCACCCAUGUGAGUU [Eli 4x 4.33] (Eterna round: R97, puzzle: Exclusion 4) | 112 nM | 99.2 nM | – | – | – | – |
| GUUUCACAUGAGGAUCACCCAUGUGAGGAUAUAGAUUUGUUAGUCGUAAUUGAUAGAUUUAGAAGGCGCGUGAU [JR_Exc1_Sub002] (Eterna round: R97, puzzle: Exclusion 1) | 27.4 nM | 25.2 nM | – | – | – | – |
| AAUAAAGGAGGAUAUACUAAAAUAUGAAUAAAAUAAAUAAAACAUGAGGAUCACCCAUGUAGAAGGCCUAAUAA [JMF's Not so obvious solution 3] (puzzle: Exclusion 2) | – | – | – | 22.8 nM | 23.9 nM | 25.2 nM |
| GCAAGCUUUAUCACUAUGAACAUGAGGAUCACCCAUGUAUAAGGUAUUACUUUUGGGCCCUUUAGUGCUCGUCUUAU [JR_STOV1_Sub032] (Eterna round: R97, puzzle: Sensor, turn-off variant 1) | 29.8 nM | 29.3 nM | – | – | – | – |
| GUCAUGAUUGUGAGGAUAUUUCAUAGAUAGAUGUUAGAGAAGGUACAUGAGGAUCACCCAUGUGUGAUCAGACA [Brourd's EX4 #74] (Eterna round: R97, puzzle: Brourd's mod of Exclusion 4) | 336 nM | 478 nM | – | – | – | – |
| GAUGCUUCGGCAUCUACAAGCUUUUUGCUCGUCUUAUUAACAUGAGGAUCACCCAUGUCAAAGAGACCUCAUGUAUU [Sensor v3 - turn-off variant 2 - 4] (puzzle: Sensor v3, turn-off variant 2) | – | – | – | 314 nM | 18.9 nM | 381 nM |
| UUACAAUGUCACUUACAAGCUUUUUGCUCGUCUUAUAUUACAUGAGGAUCACCCAUGUAGAUCAUGUGGCGUGACCU [JL ViennaUCT Maridi mod 10] (puzzle: Sensor v3, turn-off variant 2) | – | – | – | 145 nM | 46.7 nM | 151 nM |
| UAGUACCAAGGAUAUGCGUGACCAUGGCCUCCGUGGUAGAGACAUGAGGAUCACCCAUGUAGAAGGUGGAUAAC [Eternabot (L1) Solution 74] (Eterna round: R97, puzzle: Exclusion 2) | 401 nM | 335 nM | – | – | – | – |
